These results are taken from patent US20140227291A1 (AbbVie / Abbott, published 2014).

For assay [1], the target named is T1, Abeta(1-40) monomer in 0.1% NaOH (human).
T1 construct: also called Abeta(1-40) monomer, 0.1% NaOH
The assay is described as follows: dot blot, antigen dilution series on nitrocellulose, antibody 0.2 µg/ml, densitometry. Here is the method:
(§1) The dot blot was developed with 10 ml BM Blue POD Substrate for 10 min. The development was stopped by intense washing of the dot blot with H₂O. Quantitative evaluation was done based on a densitometric analysis (GS800 densitometer (BioRad) and software package Quantity one, Version 4.5.0 (Bio-Rad)) of the dot intensity. […] This threshold value was determined for every dot blot independently. The calculated value indicates the relation between recognition of Aβ(20-42) globulomer and the respective Aβ form for the given antibody.
(§2) The individual Aβ forms were applied in serial dilutions and incubated with the respective antibodies for immune reaction (1=Aβ(1-42) monomer, 0.1% NH₄OH; 2=Aβ(1-40) monomer, 0.1% NH₄OH; 3=Aβ(1-42) monomer, 0.1% NaOH; 4=Aβ(1-40) monomer, 0.1% NaOH; 5=Aβ(1-42) globulomer; 6=Aβ(12-42) globulomer; 7=Aβ(20-42) globulomer; 8=Aβ(1-42) fibril preparation; 9=sAPPα (Sigma); (first dot: 1 pmol)).

The target in assay [2] is T2, Abeta(1-42) globulomer (human, UniProt P05067 672-713).
T2 construct: also called 38/48-kDa Abeta(1-42) globulomer
Described as above. Here is the method:
as §1, §2

Assay [3] concerns the target T3, Abeta(12-42) globulomer (human).
T3 construct: Oligomer
T3 peptide: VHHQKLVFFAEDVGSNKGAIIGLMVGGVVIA
The assay is described as above. As to the method:
as §1, §2

In assay [4] the target is T4, Abeta(1-42) fibril preparation (human, UniProt P05067 672-713).
T4 construct: also called Abeta(1-42) fibrils
Described as above. Here is the method:
as §1, §2

For assay [5], the target named is T5, Abeta(1-42) monomer in 0.1% NH4OH (human).
T5 construct: also called Abeta(1-42) monomer, 0.1% NH4OH
The description is as above. As to the method:
as §1, §2

Assay [6] addresses T6, Abeta(1-40) monomer in 0.1% NH4OH (human).
T6 construct: also called Abeta(1-40) monomer, 0.1% NH4OH
The description is as above. Here is the method:
as §1, §2

The target of assay [7] is T7, Abeta(1-42) monomer in 0.1% NaOH (human).
T7 construct: also called Abeta(1-42) monomer, 0.1% NaOH
Described as above. Here is the method: as §1, §2

Assay [8] concerns the target T1, Abeta(1-40) monomer in 0.1% NaOH. The assay can be described thus: dot blot: antigen dilution series dotted on nitrocellulose, anti-mouse-IgG-POD detection. As to the method: (§3) In order to characterize the selectivity of monoclonal anti Aβ(20-42) globulomer antibodies, they were tested for binding to different Aβ-forms. To this end, serial dilutions of the individual Aβ(1-42) forms ranging from 100 pmol/μl to 0.00001 pmol/μl in PBS supplemented with 0.2 mg/ml BSA were prepared. 1 μl of each dilution was blotted onto a nitrocellulose membrane. Detection was performed by incubating with the corresponding antibody (0.2 μg/ml) followed by immunostaining using Peroxidase conjugated anti-mouse-IgG and the staining reagent BM Blue POD Substrate (Roche).
as §2

Assay [9] concerns the target T2, Abeta(1-42) globulomer. The assay is described as above. Here is the method: as §3, §2
For assay [10], the target named is T3, Abeta(12-42) globulomer. The description is as above. Here is the method: as §3, §2
Assay [11] concerns the target T4, Abeta(1-42) fibril preparation. Described as above. Here is the method: as §3, §2
In assay [12] the target is T8, sAPPalpha (Sigma cat. no. S9564) (UniProt P05067-4 18-612, limits assumed).
T8 construct: Bought protein; also called sAPPα; soluble Abeta precursor
Described as above. As to the method:
as §3, §2

Assay [13] has as its target T5, Abeta(1-42) monomer in 0.1% NH4OH. The assay is described as above. Here is the method:
as §3, §2

Assay [14] addresses T6, Abeta(1-40) monomer in 0.1% NH4OH. The description is as above. As to the method: as §3, §2
For assay [15], the target named is T7, Abeta(1-42) monomer in 0.1% NaOH. The assay is described as above. As to the method:
as §3, §2

A further assay addresses T9, Abeta(20-42) globulomer (human).
T9 construct: Oligomer; also called amyloid-beta (20-42) globulomer
T9 peptide: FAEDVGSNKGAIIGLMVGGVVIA
The assay is described as follows: dot blot, antigen dilution series on nitrocellulose, antibody 0.2 µg/ml, densitometry; reference antigen. As to the method: as §1, §2

Assay [16] deals with T8, sAPPalpha (Sigma cat. no. S9564). The assay is described as follows: dot blot, antigen dilution series on nitrocellulose (first dot 1 pmol), antibody 0.2 µg/ml, densitometry.

T8 sequence (P05067 other isoform, or with tags, fused parts or gaps limits assumed): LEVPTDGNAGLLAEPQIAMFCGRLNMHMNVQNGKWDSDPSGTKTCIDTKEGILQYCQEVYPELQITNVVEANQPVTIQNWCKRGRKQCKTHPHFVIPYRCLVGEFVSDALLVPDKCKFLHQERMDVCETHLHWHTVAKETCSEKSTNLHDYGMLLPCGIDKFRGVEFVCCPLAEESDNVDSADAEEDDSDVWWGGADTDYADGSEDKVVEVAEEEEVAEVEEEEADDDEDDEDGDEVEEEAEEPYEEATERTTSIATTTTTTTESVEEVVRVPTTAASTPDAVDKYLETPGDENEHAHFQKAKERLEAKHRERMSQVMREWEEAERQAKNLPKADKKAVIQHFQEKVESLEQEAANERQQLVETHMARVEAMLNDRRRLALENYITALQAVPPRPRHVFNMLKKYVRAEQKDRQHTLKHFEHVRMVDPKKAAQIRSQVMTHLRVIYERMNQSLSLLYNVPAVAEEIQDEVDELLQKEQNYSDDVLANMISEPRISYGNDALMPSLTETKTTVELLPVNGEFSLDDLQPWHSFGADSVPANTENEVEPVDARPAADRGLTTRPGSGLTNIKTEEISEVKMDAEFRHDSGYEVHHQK
T6 sequence (peptide, as listed by the source): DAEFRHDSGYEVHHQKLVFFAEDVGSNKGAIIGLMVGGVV
T1 sequence (peptide, as listed by the source): as above

B1: murine monoclonal antibody m4C9 (antibody, V domains shown)
VH: QVQLQQPGAELVKPGASVKLSCKAPGYTFTSYWMHWVKQRPGQGLEWIGRIDPKSGDTKYTEKFKSKATLTVDKPSSTAYMQLSSLTSEDSAVYYCTTMSKLSGTHAWFAYWGQGTLVTVSA
VL: DIKMTQSPSSMYASLGERVTITCKASQDINSYLTWFQQKPGKSPKTLIYRANRLVDGVPSRFSGSGSGQDYSLTISSLEYEDMGIYYCLQYDEFPLTFGAGTKLELK
notes: Murine monoclonal antibody from hybridoma after immunization of mice with Abeta(20-42) globulomer; also called mAb m4C9; mAb 4C9
Take B1: the “dot blot ratio (recognition of Abeta(20-42) globulomer relative to this Abeta form)” value in assay [1] amounted to 110000; with Abeta(1-42) globulomer [2] it was 30000; with Abeta(12-42) globulomer [3], 60000; in assay [4], 32600; in assay [5], 36000; in assay [6], 27300. Also, the “dot blot ratio (recognition of Abeta(20-42) globulomer relative to this Abeta form)” value in assay [7] was found to be 39500; with Abeta(20-42) globulomer it was 1. For the same molecule, the binding result (in assay [8]; with Abeta(1-42) globulomer [9]; with Abeta(12-42) globulomer [10]; in assay [11]; in assay [12]; in assay [13]) was “no binding” in each case. The binding result in [14] and in assay [15] was “no binding” throughout.

B2: murine monoclonal antibody m10B3 (antibody, V domains shown)
VH: EVKLVESGGGLVQPGGSRKLSCAASGFTFSDYEMVWVRQAPGEGLEWVAYISSGSRTIHYADTVKGRFTISRDNPKNTLFLQMSSLRSEDTAMYYCARTLLRLHFDYWGQGTILTVSS
VL: not shown
notes: Murine monoclonal antibody from hybridoma after immunization of mice with Abeta(20-42) globulomer; also called mAb m10B3; mAb 10B3
In the case of B2, the binding result (in assay [8]; in the assay with Abeta(1-42) globulomer [9]; with Abeta(12-42) globulomer [10]; in [11]; in [12]; in [13]) was “no binding” each time. Moreover, the binding result in [14] and in assay [15] was “no binding” each time.

B3: Anti-Abeta monoclonal antibody clone 6E10 (Covance cat. no. SIG-39320) (antibody, V domains shown)
VH: EVQLQQSGAELVKPGASVKLCTASGFNIKDTYIHWVKQRPEQGLEWIGRFDPVNVNTRYDSRFRGKATITSDASSNTAYLHLNSLTSEDTAVYYCSRSYYNGRRRFTYWGQGTLVTVSA
VL: DIVMTQSPSSLTVTAGEKVALTCKASQSLLSSGNQKNYLTWYQQKPGQPPKLLIYWASIRESGVPDRFTGSGSGTFFTLTISSVQAEDLAVYYCQNDYNYPFTFGSGTKLEIK
B3: the “dot blot ratio (recognition of Abeta(20-42) globulomer relative to this Abeta form)” value in the assay with Abeta(12-42) globulomer [3] turned out to be 6; in [16], 0.2; in the assay with Abeta(20-42) globulomer, 1.
